For two substances, IC50 for TGFβ1 activity in HEK-Blue TGFβ cells (QUANTI-Blue OD and EC50 of 32Dβ cell proliferation (WST1, absorbance results are on record in patent US20250108112A1.

The target of one test is TGFβ1 (R&D systems) (UniProt P01137). The test is described as follows: cell-based or functional assay.
In test [1] the target is IL2Rβ and common γ chain expressed on 32Dβ cells. In words: cell-based or functional assay.

Chain of UniProt P01137 (P01137 279-390 limits assumed): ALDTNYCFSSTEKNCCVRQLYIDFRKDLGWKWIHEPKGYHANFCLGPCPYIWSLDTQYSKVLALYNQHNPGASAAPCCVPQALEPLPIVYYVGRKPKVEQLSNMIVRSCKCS

Regarding TGFR-Fc (R&D Systems) (Fc fusion), the IC50 for TGFβ1 activity in HEK-Blue TGFβ cells (QUANTI-Blue OD at 620-655 nM) with TGFβ1 (R&D systems) is 0.461 nM.

As for “recombinant IL-15 (from UniProt P40933 49-162) (ligand)”, in test [1], the EC50 of 32Dβ cell proliferation (WST1, absorbance at 450 nM) was determined as 0.0106 nM.
